Measurements reported in publication PMC6200312, “A Single Tim Translocase in the Mitosomes of Giardia intestinalis Illustrates Convergence of Protein Import Machines in Anaerobic Eukaryotes” (Genome Biology and Evolution, 2018).

B1: Giardia intestinalis Tim17 protein (GiTim17), in vivo in Giardia (natural protein, UniProt D3KGG5 1-180, looked up)
chain: MLRLWQEYVQEDDVLACLSVLDEDCQRAVQVIERLDVEGGTPEMQTHERVCTSFSHGLIRTALRRFPLALSKNLGRVQSMLNAFNHALQETSTESFSHAISSSCGSLVSSLCNNPSAGAAMGALPNLRKSPGAALSALLMGPTIAHLVGSVYSLGLNAYHICKLELRDLRLHRAEMDKKA
notes: Tim17 family protein of Giardia intestinalis, GL50803_10452, a protein of 180 amino acids, predicted mass 19.4 kDa; also called GL50803_10452

Tests used:
[1] = target: GiTim17 synthesized in vitro (PURExpress) in lecithin liposomes (Giardia intestinalis); assay: native gel or EMSA; 35S-labelled GiTim17 translated in vitro with lecithin liposomes; pellet washed with 2 M urea in 50 mM sodium phosphate pH 8; Blue Native PAGE with 2% digitonin, 4-16% Bis-Tris gel
[2] = target: the molecule itself; assay: non-reducing SDS-PAGE; GiTim17 in vivo in Giardia; ~40 kDa complex on nonreducing SDS-PAGE, no reducing agent

Row | Molecule | stoichiometry N [1] | stoichiometry N [2]
1 | GiTim17 synthesized in vitro (PURExpress) in lecithin liposomes (natural protein) | 2 | 
2 | B1 |  | ~2
